Literature values, collected in patent publication US20240189387A1, “DOSING REGIMENS FOR HEMATOPOIETIC STEM CELL MOBILIZATION FOR STEM CELL TRANSPLANTS IN MULTIPLE MYELOMA PATIENTS” (Ensoma, Inc., priority 2021, published 2024).
Where two headings read alike, the source gives them in different places.

Legend:
[1] = test system: neutrophil activation markers (L-selectin, CD11b, CD18, CD66); conditions: 5 days of G-CSF treatment, Falanga et al., Blood 1999; cited from earlier work
[2] = G-CSF; bone pain, headache, myalgia, and/or fatigue (up to 1+ week); Pulsiper et al. 2009; cited from earlier work
[3] = test system: graft cell subsets (T cells, B cells, NK cells); conditions: cited from earlier work
[4] = test system: CD90+CD45RA− among CD34+ cells; conditions: Goncalves ASTCT 2021; cited from earlier work
[5] = Chen et al., 2019, 2 LP plerixafor, 1 LP G-CSF
[6] = Devine et al, 2008, yield of 1 LP
[7] = G-CSF, Chaidos et al, Blood 2012

B1: G-CSF: Filgrastim (G-CSF), most common clinical hematopoietic stem cell mobilization protocol, five days (protein, chains of the INN, looked up)
chain: MTPLGPASSLPQSFLLKCLEQVRKIQGDGAALQEKLCATYKLCHPEELVLLGHSLGIPWAPLSSCPSQALQLAGCLSQLHSGLFLYQGLLQALEGISPELGPTLDTLQLDVADFATTIWQQMEELGMAPALQPTQGAMPAFASAFQRRAGGVLVASHLQSFLEVSYRVLRHLAQP
- fold increase in neutrophil activation markers [1]: ~2.7 fold
- tolerability [2]: Majority with bone pain,
- graft CD34+ Median (range) ([3]; Chen et al., 2019, 2 LP for plerixafor (N = 50+), 1 LP for G-CSF (N = 112+)): 4.2e+06 kg⁻¹
- graft CD3+ Median (range) [3, 5]: 2.5e+08 kg⁻¹
- graft CD4+ Median (range) [3, 5]: 1.5e+08 kg⁻¹
- graft CD8+ Median (range) [3, 5]: 7e+07 kg⁻¹
- graft CD19+ Median (range) [3, 5]: 5e+07 kg⁻¹
- graft CD56+ Median (range) [3, 5]: 1e+07 kg⁻¹
- graft CD3+ Median (range) [3, 6]: 1.3 (1.2-6.8) ×10^8/kg
- graft CD4+ Median (range) [3, 6]: 1.1 (0.7-3.2) ×10^8/kg
- graft CD8+ Median (range) [3, 6]: 0.4 (0.3-3.4) ×10^8/kg
- graft CD56+ Median (range) [3, 6]: 0.2 (0.1-0.5) ×10^8/kg
- graft CD34+ Median (range) ([3]; Devine et al, 2008, yield of 1 LP, plerixafor N = 24, G-CSF N = 8): 4.2 (2.5-18.7) ×10^6/kg
- TNC/kg donor weight Median (range) ([3]; G-CSF, 40 healthy donors, Singhal et al, BMT 2000): 7.2 (3.2-14.0) ×10^8 cells
- frequency of CD3+ T cells in graft, Median ([3]; G-CSF, 78 healthy donors, Chaidos et al, Blood 2012): 45.3 % of CD45+
- frequency of CD4+ T cells in graft, Median [3, 7]: 29.8 % of CD45+
- frequency of CD8+ T cells in graft, Median [3, 7]: 11.8 % of CD45+
- frequency of CD19+ B cells in graft, Median [3, 7]: 10.5 % of CD45+
- frequency of CD56+ NK cells in graft, Median [3, 7]: 3.2 % of CD45+
- frequency of Tregs in graft, Median [3, 7]: 3.5 % of CD4+ T cells
- frequency of iNKT cells in graft, Median [3, 7]: 0.04 % of CD3+
- CD90+CD45RA− among CD34+ cells with a regimen that includes G-CSF [4]: 6%
